Data as given in the Human Domainome abundance scans (Beltran et al. 2025).
± gives the uncertainty stated by the source.

B1: CD2-associated protein, residues 1 to 59; numbered along this chain, Q9Y5K6 (parent)
chain: MVDYIVEYDYDAVHDDELTIRVGEIIRNVKKLQEEGWLEGELNGRRGMFPDNFVKEIKR
B2: Pyruvate dehydrogenase protein X component, mitochondrial, residues 181 to 227; numbered along this chain, O00330 (parent)
chain: RFRLSPAARNILEKHSLDASQGTATGPRGIFTKEDALKLVQLKQTGK

Variants of: B1
Assay: abundance fitness (aPCA) (normalised: wild type 0, dead -1); higher = more abundant; growth selection in yeast, the domain comes from the species named
Details: Homo sapiens

Variant	abundance fitness
MVDYIVEYDYDAVHDDELTIRVGEIIRNVKKLQEEGWLEGELNGRRGMFPDNFVSEIKR [K55S]	-0.07 ± 0.079
MVDYIVEYDYDAVHDDELTIRVGEIIRNVKKLQEEGWLEGELNGRRGMFPDNFVWEIKR [K55W]	-0.771 ± 0.32
MVDYIVEYDYDAVHDDELTIRVGEIIRNVKKLQEEGWLEGELNGRRGMFPDNFVYEIKR [K55Y]	-0.294 ± 0.23
MVDYIVEYDYDAVHDDELTIRVGEIIRNVKKLQEEGWLEGELNGRRGMFPDNFVKAIKR [E56A]	-0.002 ± 0.12
MVDYIVEYDYDAVHDDELTIRVGEIIRNVKKLQEEGWLEGELNGRRGMFPDNFVKCIKR [E56C]	-0.044 ± 0.4
MVDYIVEYDYDAVHDDELTIRVGEIIRNVKKLQEEGWLEGELNGRRGMFPDNFVKIIKR [E56I]	-0.286 ± 0.44
MVDYIVEYDYDAVHDDELTIRVGEIIRNVKKLQEEGWLEGELNGRRGMFPDNFVKKIKR [E56K]	0.024 ± 0.28
MVDYIVEYDYDAVHDDELTIRVGEIIRNVKKLQEEGWLEGELNGRRGMFPDNFVKLIKR [E56L]	-0.18 ± 0.1
MVDYIVEYDYDAVHDDELTIRVGEIIRNVKKLQEEGWLEGELNGRRGMFPDNFVKMIKR [E56M]	-0.152 ± 0.21
MVDYIVEYDYDAVHDDELTIRVGEIIRNVKKLQEEGWLEGELNGRRGMFPDNFVKPIKR [E56P]	0.06 ± 0.19
MVDYIVEYDYDAVHDDELTIRVGEIIRNVKKLQEEGWLEGELNGRRGMFPDNFVKQIKR [E56Q]	-0.217 ± 0.25
MVDYIVEYDYDAVHDDELTIRVGEIIRNVKKLQEEGWLEGELNGRRGMFPDNFVKRIKR [E56R]	-0.137 ± 0.089
MVDYIVEYDYDAVHDDELTIRVGEIIRNVKKLQEEGWLEGELNGRRGMFPDNFVKSIKR [E56S]	-0.256 ± 0.11
MVDYIVEYDYDAVHDDELTIRVGEIIRNVKKLQEEGWLEGELNGRRGMFPDNFVKTIKR [E56T]	-0.244 ± 0.17
MVDYIVEYDYDAVHDDELTIRVGEIIRNVKKLQEEGWLEGELNGRRGMFPDNFVKVIKR [E56V]	-0.05 ± 0.27
MVDYIVEYDYDAVHDDELTIRVGEIIRNVKKLQEEGWLEGELNGRRGMFPDNFVKECKR [I57C]	-0.25 ± 0.32
MVDYIVEYDYDAVHDDELTIRVGEIIRNVKKLQEEGWLEGELNGRRGMFPDNFVKEGKR [I57G]	-0.157 ± 0.24
MVDYIVEYDYDAVHDDELTIRVGEIIRNVKKLQEEGWLEGELNGRRGMFPDNFVKEMKR [I57M]	-0.205 ± 0.35
MVDYIVEYDYDAVHDDELTIRVGEIIRNVKKLQEEGWLEGELNGRRGMFPDNFVKEPKR [I57P]	-0.326 ± 0.31
MVDYIVEYDYDAVHDDELTIRVGEIIRNVKKLQEEGWLEGELNGRRGMFPDNFVKERKR [I57R]	-0.007 ± 0.25
MVDYIVEYDYDAVHDDELTIRVGEIIRNVKKLQEEGWLEGELNGRRGMFPDNFVKEVKR [I57V]	-0.03 ± 0.37
MVDYIVEYDYDAVHDDELTIRVGEIIRNVKKLQEEGWLEGELNGRRGMFPDNFVKEIAR [K58A]	-0.021 ± 0.27

Variant	abundance fitness
MVDYIVEYDYDAVHDDELTIRVGEIIRNVKKLQEEGWLEGELNGRRGMFPDNFVKEICR [K58C]	-0.099 ± 0.24
MVDYIVEYDYDAVHDDELTIRVGEIIRNVKKLQEEGWLEGELNGRRGMFPDNFVKEIER [K58E]	0.001 ± 0.22
MVDYIVEYDYDAVHDDELTIRVGEIIRNVKKLQEEGWLEGELNGRRGMFPDNFVKEIGR [K58G]	-0.008 ± 0.29
MVDYIVEYDYDAVHDDELTIRVGEIIRNVKKLQEEGWLEGELNGRRGMFPDNFVKEIMR [K58M]	-0.138 ± 0.25
MVDYIVEYDYDAVHDDELTIRVGEIIRNVKKLQEEGWLEGELNGRRGMFPDNFVKEIQR [K58Q]	0.059 ± 0.43
MVDYIVEYDYDAVHDDELTIRVGEIIRNVKKLQEEGWLEGELNGRRGMFPDNFVKEIRR [K58R]	-0.036 ± 0.14
MVDYIVEYDYDAVHDDELTIRVGEIIRNVKKLQEEGWLEGELNGRRGMFPDNFVKEIVR [K58V]	-0.315 ± 0.29
MVDYIVEYDYDAVHDDELTIRVGEIIRNVKKLQEEGWLEGELNGRRGMFPDNFVKEIKA [R59A]	-0.303 ± 0.22
MVDYIVEYDYDAVHDDELTIRVGEIIRNVKKLQEEGWLEGELNGRRGMFPDNFVKEIKC [R59C]	0.035 ± 0.29
MVDYIVEYDYDAVHDDELTIRVGEIIRNVKKLQEEGWLEGELNGRRGMFPDNFVKEIKE [R59E]	0.138 ± 0.12
MVDYIVEYDYDAVHDDELTIRVGEIIRNVKKLQEEGWLEGELNGRRGMFPDNFVKEIKF [R59F]	-0.182 ± 0.22
MVDYIVEYDYDAVHDDELTIRVGEIIRNVKKLQEEGWLEGELNGRRGMFPDNFVKEIKG [R59G]	0.011 ± 0.097
MVDYIVEYDYDAVHDDELTIRVGEIIRNVKKLQEEGWLEGELNGRRGMFPDNFVKEIKH [R59H]	0.107 ± 0.14
MVDYIVEYDYDAVHDDELTIRVGEIIRNVKKLQEEGWLEGELNGRRGMFPDNFVKEIKK [R59K]	0.012 ± 0.14
MVDYIVEYDYDAVHDDELTIRVGEIIRNVKKLQEEGWLEGELNGRRGMFPDNFVKEIKL [R59L]	0.063 ± 0.11
MVDYIVEYDYDAVHDDELTIRVGEIIRNVKKLQEEGWLEGELNGRRGMFPDNFVKEIKM [R59M]	-0.058 ± 0.1
MVDYIVEYDYDAVHDDELTIRVGEIIRNVKKLQEEGWLEGELNGRRGMFPDNFVKEIKP [R59P]	0.2 ± 0.15
MVDYIVEYDYDAVHDDELTIRVGEIIRNVKKLQEEGWLEGELNGRRGMFPDNFVKEIKQ [R59Q]	0.024 ± 0.25
MVDYIVEYDYDAVHDDELTIRVGEIIRNVKKLQEEGWLEGELNGRRGMFPDNFVKEIKS [R59S]	0.052 ± 0.1
MVDYIVEYDYDAVHDDELTIRVGEIIRNVKKLQEEGWLEGELNGRRGMFPDNFVKEIKT [R59T]	-0.011 ± 0.32
MVDYIVEYDYDAVHDDELTIRVGEIIRNVKKLQEEGWLEGELNGRRGMFPDNFVKEIKW [R59W]	-0.126 ± 0.1
MVDYIVEYDYDAVHDDELTIRVGEIIRNVKKLQEEGWLEGELNGRRGMFPDNFVKEIKY [R59Y]	-0.156 ± 0.26

Variants of: B2
Assay: as above
Details: Homo sapiens

Variant	abundance fitness
AFRLSPAARNILEKHSLDASQGTATGPRGIFTKEDALKLVQLKQTGK [R1A]	0.02 ± 0.23
CFRLSPAARNILEKHSLDASQGTATGPRGIFTKEDALKLVQLKQTGK [R1C]	-0.516 ± 0.27
EFRLSPAARNILEKHSLDASQGTATGPRGIFTKEDALKLVQLKQTGK [R1E]	-0.206 ± 0.14
GFRLSPAARNILEKHSLDASQGTATGPRGIFTKEDALKLVQLKQTGK [R1G]	0.171 ± 0.063
IFRLSPAARNILEKHSLDASQGTATGPRGIFTKEDALKLVQLKQTGK [R1I]	-0.317 ± 0.36
KFRLSPAARNILEKHSLDASQGTATGPRGIFTKEDALKLVQLKQTGK [R1K]	-0.289 ± 0.17
